From IntAct's records for PubMed 29039417

B1: BBSome complex member BBS4 (Homo sapiens), Q96RK4 (parent)
chain: MAEERVATRTQFPVSTESQKPRQKKAPEFPILEKQNWLIHLHYIRKDYEACKAVIKEQLQETQGLCEYAIYVQALIFRLEGNIQESLELFQTCAVLSPQSADNLKQVARSLFLLGKHKAAIEVYNEAAKLNQKDWEISHNLGVCYIYLKQFNKAQDQLHNALNLNRHDLTYIMLGKIHLLEGDLDKAIEVYKKAVEFSPENTELLTTLGLLYLQLGIYQKAFEHLGNALTYDPTNYKAILAAGSMMQTHGDFDVALTKYRVVACAVPESPPLWNNIGMCFFGKKKYVAAISCLKRANYLAPFDWKILYNLGLVHLTMQQYASAFHFLSAAINFQPKMGELYMLLAVALTNLEDIENAKRAYAEAVHLDKCNPLVNLNYAVLLYNQGEKKNALAQYQEMEKKVSLLKDNSSLEFDSEMVEMAQKLGAALQVGEALVWTKPVKDPKSKHQTTSTSKPASFQQPLGSNQALGQAMSSAAAYRTLPSGAGGTSQFTKPPSLPLEPEPAVESSPTETSEQIREK
partner: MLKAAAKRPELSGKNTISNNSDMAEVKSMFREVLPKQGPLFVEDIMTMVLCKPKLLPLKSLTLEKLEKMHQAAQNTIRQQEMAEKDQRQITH
B2: BBSome complex member BBS2 (Homo sapiens), Q9BXC9 (parent)
chain: MLLPVFTLKLRHKISPRMVAIGRYDGTHPCLAAATQTGKVFIHNPHTRNQHVSASRVFQSPLESDVSLLSINQAVSCLTAGVLNPELGYDALLVGTQTNLLAYDVYNNSDLFYREVADGANAIVLGTLGDISSPLAIIGGNCALQGFNHEGSDLFWTVTGDNVNSLALCDFDGDGKKELLVGSEDFDIRVFKEDEIVAEMTETEIVTSLCPMYGSRFGYALSNGTVGVYDKTSRYWRIKSKNHAMSIHAFDLNSDGVNELITGWSNGKVDARSDRTGEVIFKDNFSSAIAGVVEGDYRMDGHIQLICCSVDGEIRGYLPGTAEMRGNLMDTSAEQDLIRELSQKKQNLLLELRNYEENAKAELASPLNEADGHRGIIPANTRLHTTLSVSLGNETQTAHTELRISTSNDTIIRAVLIFAEGIFTGESHVVHPSIHNLSSSICIPIVPPKDVPVDLHLKAFVGYRSSTQFHVFESTRQLPRFSMYALTSLDPASEPISYVNFTIAERAQRVVVWLGQNFLLPEDTHIQNAPFQVCFTSLRNGGHLHIKIKLSGEITINTDDIDLAGDIIQSMASFFAIEDLQVEADFPVYFEELRKVLVKVDEYHSVHQKLSADMADHSNLIRSLLVGAEDARLMRDMKTMKSRYMELYDLNRDLLNGYKIRCNNHTELLGNLKAVNQAIQRAGRLRVGKPKNQVITACRDAIRSNNINTLFKIMRVGTASS
partner: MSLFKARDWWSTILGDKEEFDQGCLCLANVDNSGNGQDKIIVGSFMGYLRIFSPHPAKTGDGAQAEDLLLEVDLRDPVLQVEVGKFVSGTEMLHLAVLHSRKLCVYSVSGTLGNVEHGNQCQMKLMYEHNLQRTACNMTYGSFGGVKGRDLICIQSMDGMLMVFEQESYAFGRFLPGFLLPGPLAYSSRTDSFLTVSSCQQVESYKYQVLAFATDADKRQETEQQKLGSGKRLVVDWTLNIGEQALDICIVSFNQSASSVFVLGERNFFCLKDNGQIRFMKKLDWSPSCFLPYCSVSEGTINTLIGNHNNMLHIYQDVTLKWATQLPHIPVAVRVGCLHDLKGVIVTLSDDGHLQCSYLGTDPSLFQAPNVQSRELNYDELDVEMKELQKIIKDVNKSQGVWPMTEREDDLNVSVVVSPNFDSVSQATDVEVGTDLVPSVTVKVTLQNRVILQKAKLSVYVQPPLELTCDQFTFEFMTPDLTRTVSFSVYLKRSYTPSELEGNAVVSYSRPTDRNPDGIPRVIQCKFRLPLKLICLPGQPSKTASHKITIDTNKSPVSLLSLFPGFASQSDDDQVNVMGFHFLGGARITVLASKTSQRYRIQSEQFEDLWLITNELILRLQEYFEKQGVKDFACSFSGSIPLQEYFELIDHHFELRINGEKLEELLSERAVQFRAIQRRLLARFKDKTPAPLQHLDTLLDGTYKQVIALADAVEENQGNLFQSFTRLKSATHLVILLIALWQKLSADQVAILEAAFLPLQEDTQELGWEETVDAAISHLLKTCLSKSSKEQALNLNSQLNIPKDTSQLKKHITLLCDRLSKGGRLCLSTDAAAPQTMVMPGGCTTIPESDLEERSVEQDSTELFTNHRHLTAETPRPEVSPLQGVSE

Variants of: B1
Conditions: with bbip1_human BBIP1, A8MTZ0

Variant | effect of a mutation on the interaction
N377Y | disrupting interaction strength
L327P | disrupting interaction strength

Variants of: B1
Conditions: with bbip1_human BBIP1, A8MTZ0
Remark: another data set of the same source

Variant | effect of a mutation on the interaction
N377A | with no effect
T480E | with no effect
G425A | with no effect
T512E | with no effect
S415K | with no effect
L481A | with no effect
L340A | with no effect
P494E | with no effect
S291K | with no effect
S291E | with no effect
Y378K | with no effect
S403K | with no effect
S403E | with no effect
K454A | with no effect
K454E | with no effect
P461E | with no effect
S496E | with no effect
M342A | with no effect
E416A | with no effect
H325E | with no effect
Q334E | with no effect
D407A | with no effect
V313E | with no effect
E387A | with no effect

Variant | effect of a mutation on the interaction
Q422K | with no effect
Q319K | with no effect
S474A | with no effect
L462E | with no effect
L348T | disrupting interaction strength
L348K | with no effect
K400A | with no effect
L307K | with no effect
L307A | with no effect
A362K | with no effect
L497A | with no effect
L327K | with no effect
W304E | with no effect
W304R | disrupting interaction strength
A379E | with no effect
K444A | with no effect
K283A | with no effect
N297E | with no effect
Q470K | with no effect
F458E | with no effect
G431A | with no effect
S328E | with no effect
V505A | with no effect
E352A | with no effect

Variant | effect of a mutation on the interaction
L310W | disrupting interaction strength
F326E | with no effect
A364E | with no effect
L424K | with no effect
L381K | with no effect
I516K | with no effect
K401A | with no effect
K401E | disrupting interaction strength
E397A | with no effect
N350E | with no effect
K423E | with no effect
L392A | with no effect
V380A | disrupting interaction strength
E355A | with no effect
L343A | with no effect
A330V | disrupting interaction strength
S508K | with no effect
P501A | with no effect
L468A | with no effect
E412K | with no effect
A288E | with no effect
N275K | with no effect
V374K | with no effect

Variants of: B2
Conditions: with pthb1_human BBS9, Q3SYG4

Variant | effect of a mutation on the interaction
M329A | with no effect
S611K | with no effect
V716E | with no effect
N671E | with no effect
K712A | with no effect
I567A | with no effect
F460A | disrupting interaction strength
V415K | with no effect
M634A | with no effect
I441E | with no effect
N500A | with no effect
L457K | disrupting interaction strength
A485K | with no effect
S605E | with no effect
S407E | with no effect
L580K | with no effect
I554G | disrupting interaction strength
G541K | with no effect
L387K | disrupting interaction strength
P432A | with no effect
T555K | with no effect
N651E | with no effect
H384A | with no effect
I496K | with no effect
N327A | with no effect
L383K | with no effect

Variant | effect of a mutation on the interaction
I445Q | disrupting interaction strength
I445E | disrupting interaction strength
Q516K | with no effect
R413E | with no effect
M645E | with no effect
H607E | with no effect
A701K | with no effect
E583K | with no effect
M637A | with no effect
D585E | with no effect
V687K | with no effect
K595E | with no effect
D330E | with no effect
M640K | with no effect
V446E | with no effect
K547A | with no effect
Q693A | with no effect
A414V | disrupting interaction strength
F418K | with no effect
E356L | disrupting interaction strength
N557K | with no effect
E351K | with no effect
E351A | with no effect
T395A | with no effect
G375A | with no effect
S482K | disrupting interaction strength

Variant | effect of a mutation on the interaction
L350K | with no effect
P448A | with no effect
L348K | with no effect
V694A | with no effect
N676A | with no effect
N408E | with no effect
G421E | with no effect
H604A | with no effect
R374A | with no effect
P521A | with no effect
L710K | with no effect
D562V | disrupting interaction strength
S439E | disrupting interaction strength
N380K | with no effect
R382A | disrupting interaction strength
A459K | disrupting interaction strength
A459E | disrupting interaction strength
L550E | with no effect
R325E | with no effect
S474E | with no effect
E553A | with no effect
G683A | with no effect
S438F | disrupting interaction strength
A576K | with no effect
K641A | with no effect
D409E | with no effect

Variant | effect of a mutation on the interaction
E362A | with no effect
K449R | disrupting interaction strength
T397K | with no effect
R632K | with no effect
R632A | with no effect
I434E | with no effect
R681E | with no effect
Q396A | with no effect
I338E | with no effect
I338A | with no effect
P378E | with no effect
I376E | with no effect
V675A | with no effect
V675K | with no effect
L455A | with no effect
S440K | with no effect
S390E | disrupting interaction strength
N663A | with no effect
E591K | with no effect
H525A | with no effect
Y644K | with no effect
L668E | with no effect
R622E | with no effect
P530K | with no effect
